Source: article PMC6957492, “Assembly and substrate recognition of curli biogenesis system” (Nature Communications, 2020)
Entries after “also recorded” stand apart in the source; their conditions may differ.

B1: CsgE: soluble accessory factor that binds CsgG (protein)
chain: VEVEVPGLLTDHTVSSIGHDFYRAFSDKWESDYTGNLTINERPSARWGSWITITVNQDVIFQTFLFPLKRDFEKTVVFALIQTEEALNRRQINQALLSTGDLAHDEF
modifications: left off: His tag (from the Ni-NTA purification of the input), end not stated, state not stated

Tests used:
CsgE = assay: Pulldown assay of different parts of CsgA with CsgE; type: binding, E. coli; settings: C-terminal MBP tag on CsgA parts
CsgA = settings: cited from earlier work
CsgG nonamer = molecular target: T1, CsgG nonamer (Escherichia coli, UniProt P0AEA2); type: binding, E. coli K12; settings: given in reply to Reviewer #1
T1 construct: made in house; host or cells: E. coli BL21 (DE3)
T1 sequence (P0AEA2 whole entry, looked up): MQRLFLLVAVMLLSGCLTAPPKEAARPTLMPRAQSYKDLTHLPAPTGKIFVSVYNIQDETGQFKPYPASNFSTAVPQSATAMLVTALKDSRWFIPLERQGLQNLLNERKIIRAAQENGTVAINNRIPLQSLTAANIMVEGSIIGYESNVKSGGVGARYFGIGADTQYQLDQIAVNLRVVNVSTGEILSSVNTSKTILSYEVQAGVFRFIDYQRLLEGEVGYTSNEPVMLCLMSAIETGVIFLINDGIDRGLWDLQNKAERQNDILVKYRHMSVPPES
Source text: (1 picture or pasted object on this page, not shown here)
are provided as a Source Data file.

CsgG = assay: Pulldown assay of CsgE with CsgG; type: binding, E. coli; settings: western blot
Description: The CsgE and CsgG were transformed in E. coli BL21 (DE3) strain. […] After incubation for 30 min, CsgE alone and CsgE-CsgG mixture were loaded to Strep-Tactin columns (IBA), respectively. The beads were washed for four times with a buffer having 25 mM Tris pH 8.0, 150 mM NaCl and 0.02% DDM and then eluted by an elution buffer (25 mM Tris pH 8.0, 150 mM NaCl, 0.02% DDM and 25 mM desthiobiotin). […] The samples were analyzed using 15% SDS–PAGE and detected using western blotting.

| Molecule | interaction of CsgA part with CsgE in pulldown (CsgE) | inhibition of CsgA self-assembly into amyloid fibers (CsgA) | CsgE-CsgG ITC interaction strength (in words) (CsgG nonamer) | interaction of CsgE with CsgG in pulldown (CsgG) |
| --- | --- | --- | --- | --- |
| CsgAR1-5: five C-terminal repeating units of CsgA | CsgE bound to CsgAR1-5 |  |  |  |
| B1 |  | inhibit self-assembly of CsgA into amyloid fibers | mM level | CsgG could pull-down CsgE; also recorded: interacts with the CsgG channel |
